# Data from patent publication US20230287458, “RECOMBINANT ADENO-ASSOCIATED VIRAL […] FOR […] GENE […]” (Abeona Therapeutics Inc., published 2023).
# B1: Lox66 (dsDNA)
# DNA 1: ATAACTTCGTATAATGTATGCTATACGAACGGTA
# DNA 2: TACCGTTCGTATAGCATACATTATACGAAGTTAT
# Biological target: Cre recombinase (UniProt P06956 P06956:1-343)
# Assay: cell_activity; Lox66 partner site of Lox71 in same experiment; full-length ABCA4 mRNA relative to the pair without Cre
# Details: tags: NLS; expressed from the 5' ABCA4 vector after T2A self-cleavage; chain copies: 4
# Description: We quantified the expression levels of full-length ABCA4 mRNA in cells transfected with various plasmids.
# Cre recombinase, sequence (P06956 whole entry, one chain of several): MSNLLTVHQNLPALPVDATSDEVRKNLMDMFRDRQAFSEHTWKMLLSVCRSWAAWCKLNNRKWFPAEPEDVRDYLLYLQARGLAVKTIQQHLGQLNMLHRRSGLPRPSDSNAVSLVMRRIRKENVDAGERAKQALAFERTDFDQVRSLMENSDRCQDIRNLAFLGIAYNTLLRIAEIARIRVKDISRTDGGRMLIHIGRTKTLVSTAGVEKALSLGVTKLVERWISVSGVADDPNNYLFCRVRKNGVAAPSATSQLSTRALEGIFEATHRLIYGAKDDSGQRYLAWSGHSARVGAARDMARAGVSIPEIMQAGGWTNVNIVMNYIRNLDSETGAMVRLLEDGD
binder,measurement,value
B1,activity,~55 fold
